T1: SIGLEC-5 (limits assumed)
T1 construct: also called OB-BP-2
T1 receptor: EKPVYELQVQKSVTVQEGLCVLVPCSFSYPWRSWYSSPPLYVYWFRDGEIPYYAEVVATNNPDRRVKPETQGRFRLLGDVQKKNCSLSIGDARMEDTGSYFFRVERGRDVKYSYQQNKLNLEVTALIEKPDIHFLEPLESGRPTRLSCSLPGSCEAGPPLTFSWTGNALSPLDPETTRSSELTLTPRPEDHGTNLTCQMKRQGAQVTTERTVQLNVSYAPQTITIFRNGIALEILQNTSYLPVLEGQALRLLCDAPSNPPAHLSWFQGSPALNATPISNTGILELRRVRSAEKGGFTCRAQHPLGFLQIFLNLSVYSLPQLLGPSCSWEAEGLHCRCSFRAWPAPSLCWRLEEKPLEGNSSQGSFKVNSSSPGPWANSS

B1: SIGLEC-8-19 (antibody, human IgG1, kappa, V domains shown)
VH: EVQLLESGGGLVQPGGSLRLSCAASGFTFRTYDMSWVRQAPGKGLEWVSAISGGGGSTYYADSVKGRFTISRDNSKNTLYLQMNSLRAEDTAVYYCARDSSYRWFSMDVWGQGTLVTVSS
VL: DIQMTQSPSSLSASVGDRVTITCRAGQSISTYLNWYQQKPGKAPKLLIYGASKLQSGVPSRFSGSGSGTDFTLTISSLQPEDFATYYCQQTYRTPLTFGGGTKVEIKR
notes: tested as expressed and purified mAb
B2: SIGLEC-8-48 (antibody, human IgG1, kappa, V domains shown)
VH: EVQLLESGGGLVQPGGSLRLSCAASGFNFRSYAMSWVRQAPGKGLEWVSGISGSGGSAYYADSVKGRFTISRDNSKNTLYLQMNSLRAEDTAVYYCAREGYNWAVDYWGQGTLVTVSS
VL: DIQMTQSPSSLSASVGDRVTITCRASQSISGFLNWYQQKPGKAPKLLIYGASILQSGVPSRFSGSGSGTDFTLTISSLQPEDFATYYCQQTYSTPRSFGGGTKVEIKR
notes: as for B1
B3: SIGLEC-8-57 (antibody, human IgG1, kappa, V domains shown)
VH: EVQLLESGGGLVQPGGSLRLSCAASGFAFSRYAMSWVRQAPGKGLEWVSGISGSGGRTHYADSVKGRFTISRDNSKNTLYLQMNSLRAEDTAVYYCARQSRGGSLGMDVWGQGTLVTVSS
VL: DIQMTQSPSSLSASVGDRVTITCRASQSISGYLNWYQQKPGKAPKLLIYGSSTLQSGVPSRFSGSGSGTDFTLTISSLQPEDFATYYCQQSYSPPWTFGGGTKVEIKR
notes: as for B1
B4: SIGLEC-8-11 (antibody, human IgG1, kappa, V domains shown)
VH: EVQLLESGGGLVQPGGSLRLSCAASGLTFSNYDMSWVRQAPGKGLEWVSAISTSGGGSGGSTYYADSVKGRFTISRDNSKNTLYLQMNSLRAEDTAVYYCAREANNYYYGMDVWGQGTLVTVSS
VL: DIQMTQSPSSLSASVGDRVTITCRASQTISSYLHWYQQKPGKAPKLLIYAASSLHTGVPSRFSGSGSGTDFTLTISSLQPEDFATYYCQQSSSTPLTFGGGTKVEIKR
notes: as for B1
B5: SIGLEC-8-44 (antibody, human IgG1, kappa, V domains shown)
VH: EVQLLESGGGLVQPGGSLRLSCAASGFTISSSAMTWVRQAPGKGLEWVSSISGGGGTTYYADSVKGRFTISRDNSKNTLYLQMNSLRAEDTAVYYCAREGAGYYYGMDVWGQGTLVTVSS
VL: DIQMTQSPSSLSASVGDRVTITCRASQSIGNYLNWYQQKPGKAPKLLIYAASRLQGGVPSRFSGSGSGTDFTLTISSLQPEDFATYYCQQSYSTPLSFGGGTKVEIKR
notes: as for B1
B6: SIGLEC-8-17 (antibody, human IgG1, kappa, V domains shown)
VH: EVQLLESGGGLVQPGGSLRLSCAASGFPFSNYAMGWVRQAPGKGLEWVSGISASGSSTYYADSVKGRFTISRDNSKNTLYLQMNSLRAEDTAVYYCAREDSGKYLSLDYWGQGTLVTVSS
VL: DIQMTQSPSSLSASVGDRVTITCRTSQSISSHLNWYQQKPGKAPKLLIYAASSLQPGVPSRFSGSGSGTDFTLTISSLQPEDFATYYCQQSYNTPPTFGGGTKVEIKR
notes: as for B1
B7: SIGLEC-8-34 (antibody, human IgG1, kappa, V domains shown)
VH: EVQLLESGGGLVQPGGSLRLSCAASGFTFSRHAMGWVRQAPGKGLEWVSSISGSGYSTYYADSVKGRFTISRDNSKNTLYLQMNSLRAEDTAVYYCARENGQYYYGMDVWGQGTLVTVSS
VL: DIQMTQSPSSLSASVGDRVTITCRASQTITTYLNWYQQKPGKAPKLLIYAASHLQTGVPSRFSGSGSGTDFTLTISSLQPEDFATYYCQQSYSTPLSFGGGTKVEIKR
notes: as for B1
B8: SIGLEC-8-7 (antibody, human IgG1, kappa, V domains shown)
VH: EVQLLESGGGLVQPGGSLRLSCAASGFTFSNHAMAWVRQAPGKGLEWVSGISGSAASTYYADSVKGRFTISRDNSKNTLYLQMNSLRAEDTAVYYCARDLLALPYAFDIWGQGTLVTVSS
VL: DIQMTQSPSSLSASVGDRVTITCRASQSTSSYLSWYQQKPGKAPKLLIYAVSTLQSGVPSRFSGSGSGTDFTLTISSLQPEDFATYYCQQSYSVPLTFGGGTKVEIKR
notes: as for B1
B9: SIGLEC-8-56 (antibody, human IgG1, kappa, V domains shown)
VH: EVQLLESGGGLVQPGGSLRLSCAASGLTFSSSAMSWVRQAPGKGLEWVSAISGYGGSTYYADSVKGRFTISRDNSKNTLYLQMNSLRAEDTAVYYCAREAGYYYYGMDVWGQGTLVTVSS
VL: DIQMTQSPSSLSASVGDRVTITCRASQKITSYLNWYQQKPGKAPKLLIYAASSLHDGVPSRFSGSGSGTDFTLTISSLQPEDFATYYCQQSYGTPLTFGGGTKVEIKR
notes: as for B1
B10: SIGLEC-8-32 (antibody, human IgG1, kappa, V domains shown)
VH: EVQLLESGGGLVQPGGSLRLSCAASGFTLSSYVMSWVRQAPGKGLEWVSAISGSGATTYYADSVKGRFTISRDNSKNTLYLQMNSLRAEDTAVYYCAREVAGIFDYWGQGTLVTVSS
VL: DIQMTQSPSSLSASVGDRVTITCRSSQSISTYLNWYQQKPGKAPKLLIYAASYLQSGVPSRFSGSGSGTDFTLTISSLQPEDFATYYCQQSYDTPLTFGGGTKVEIKR
notes: as for B1
B11: SIGLEC-8-24 (antibody, human IgG1, kappa, V domains shown)
VH: EVQLLESGGGLVQPGGSLRLSCAASGFTFSSTAMSWVRQAPGKGLEWVSAISGTGGSTYYADSVKGRFTISRDNSKNTLYLQMNSLRAEDTAVYYCARESDYDYFGMDVWGQGTLVTVSS
VL: DIQMTQSPSSLSASVGDRVTITCRASQSVSSYVNWYQQKPGKAPKLLIYGASSLQDGVPSRFSGSGSGTDFTLTISSLQPEDFATYYCQQSYSVPVTFGGGTKVEIKR
notes: as for B1
B12: SIGLEC-8-10 (antibody, human IgG1, kappa, V domains shown)
VH: EVQLLESGGGLVQPGGSLRLSCAASGFTFNNYAMAWVRQAPGKGLEWVSAISGSGSSPYYADSVKGRFTISRDNSKNTLYLQMNSLRAEDTAVYYCARDQIVAMDVWGQGTLVTVSS
VL: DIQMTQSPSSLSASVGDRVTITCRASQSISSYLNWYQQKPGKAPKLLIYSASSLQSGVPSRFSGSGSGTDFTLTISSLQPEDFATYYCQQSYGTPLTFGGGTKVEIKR
notes: as for B1
B13: SIGLEC-8-54 (antibody, human IgG1, kappa, V domains shown)
VH: EVQLLESGGGLVQPGGSLRLSCAASGFTFNNYAMAWVRQAPGKGLEWVSAISGSGSSPYYADSVKGRFTISRDNSKNTLYLQMNSLRAEDTAVYYCARDQIVAMDVWGQGTLVTVSS
VL: DIQMTQSPSSLSASVGDRVTITCRGSQSISSYLNWYQQKPGKAPKLLIYDASSLQSGVPSRFSGSGSGTDFTLTISSLQPEDFATYYCQQSYRTPITFGGGTKVEIKR
notes: as for B1

Columns and labels:
[1] = biological target: T2, Sialic acid-binding immunoglobulin-like lectin 8 (SIGLEC-8), antigen of the Carterra SPR studies (UniProt Q9NYZ4 17-363, limits assumed); assay: Carterra SPR
T2 sequence (Q9NYZ4 17-363 limits assumed): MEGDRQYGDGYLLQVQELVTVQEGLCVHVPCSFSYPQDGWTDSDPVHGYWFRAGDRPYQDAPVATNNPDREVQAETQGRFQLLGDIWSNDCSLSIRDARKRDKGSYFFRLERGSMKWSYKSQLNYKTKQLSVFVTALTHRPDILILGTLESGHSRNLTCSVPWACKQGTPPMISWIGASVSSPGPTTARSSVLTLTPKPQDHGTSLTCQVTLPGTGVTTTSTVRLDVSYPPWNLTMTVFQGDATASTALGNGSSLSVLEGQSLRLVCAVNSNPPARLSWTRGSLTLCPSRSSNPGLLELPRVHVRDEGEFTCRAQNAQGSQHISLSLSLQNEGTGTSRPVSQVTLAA
How it was run: (§1)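 Values are rate constants or dissociation constants for antibodies binding SIGLEC-8, measured by surface plasmon resonance on a Carterra instrument. The antibodies were drawn from synthetic libraries through four rounds of bead-based panning. Clones picked by clonal ELISA were expressed and purified prior to measurement.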

SIGLEC-2 = biological target: T3, SIGLEC-2; assay: SPR cross-reactivity table
T3 construct: also called CD22
T3 sequence (chain, as listed by the source limits assumed): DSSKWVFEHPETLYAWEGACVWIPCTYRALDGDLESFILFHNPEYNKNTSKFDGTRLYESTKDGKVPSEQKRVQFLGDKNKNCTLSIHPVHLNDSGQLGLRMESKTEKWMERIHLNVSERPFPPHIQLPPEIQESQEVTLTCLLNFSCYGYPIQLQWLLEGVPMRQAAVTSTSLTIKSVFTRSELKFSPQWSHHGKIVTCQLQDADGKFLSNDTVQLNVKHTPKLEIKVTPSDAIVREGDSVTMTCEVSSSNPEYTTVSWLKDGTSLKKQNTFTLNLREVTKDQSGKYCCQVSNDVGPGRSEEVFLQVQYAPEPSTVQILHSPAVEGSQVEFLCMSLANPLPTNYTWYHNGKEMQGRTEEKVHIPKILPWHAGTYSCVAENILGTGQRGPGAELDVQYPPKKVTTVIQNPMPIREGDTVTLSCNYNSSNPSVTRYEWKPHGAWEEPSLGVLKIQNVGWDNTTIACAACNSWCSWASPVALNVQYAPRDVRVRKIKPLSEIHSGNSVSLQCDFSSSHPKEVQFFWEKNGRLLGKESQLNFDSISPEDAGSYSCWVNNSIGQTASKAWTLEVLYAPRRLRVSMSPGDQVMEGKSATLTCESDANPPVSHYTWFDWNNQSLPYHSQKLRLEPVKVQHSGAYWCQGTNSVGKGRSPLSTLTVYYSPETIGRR
How it was run: (§2)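 Antibodies raised against SIGLEC-8 were tested for cross-reactivity with related SIGLEC proteins by surface plasmon resonance on a Carterra instrument. The antibodies came from synthetic libraries panned over four rounds with a bead-based strategy and screened by clonal ELISA. Selected clones were expressed and purified before testing. Dissociation constants or binding results are reported for each protein tested.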

SIGLEC-3 = biological target: T4, SIGLEC-3; assay: SPR cross-reactivity table
T4 construct: also called CD33
T4 sequence (receptor, as listed by the source limits assumed): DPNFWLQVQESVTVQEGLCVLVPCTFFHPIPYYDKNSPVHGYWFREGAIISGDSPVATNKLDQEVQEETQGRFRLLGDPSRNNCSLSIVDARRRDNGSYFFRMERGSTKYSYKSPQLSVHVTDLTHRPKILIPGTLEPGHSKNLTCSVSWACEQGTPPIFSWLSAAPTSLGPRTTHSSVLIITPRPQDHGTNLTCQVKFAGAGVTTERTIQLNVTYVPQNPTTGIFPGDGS
How it was run: as §2

SIGLEC-5 = biological target: T1, SIGLEC-5; assay: SPR cross-reactivity table
How it was run: as §2

SIGLEC-6 = biological target: T5, SIGLEC-6; assay: SPR cross-reactivity table
T5 construct: also called OB-BP-1
T5 sequence (receptor, as listed by the source limits assumed): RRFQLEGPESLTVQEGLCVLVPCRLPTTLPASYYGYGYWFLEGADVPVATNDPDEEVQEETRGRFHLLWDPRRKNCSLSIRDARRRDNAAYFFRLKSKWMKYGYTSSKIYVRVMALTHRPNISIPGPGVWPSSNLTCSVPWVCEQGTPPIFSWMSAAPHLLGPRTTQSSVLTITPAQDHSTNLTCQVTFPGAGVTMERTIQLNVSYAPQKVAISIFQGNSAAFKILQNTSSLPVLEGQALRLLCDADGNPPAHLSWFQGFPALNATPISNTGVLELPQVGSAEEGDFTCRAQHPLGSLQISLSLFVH
How it was run: as §2

SIGLEC-7 = biological target: T6, SIGLEC-7; assay: SPR cross-reactivity table
T6 construct: also called p75/AIRM1
T6 sequence (receptor, as listed by the source limits assumed): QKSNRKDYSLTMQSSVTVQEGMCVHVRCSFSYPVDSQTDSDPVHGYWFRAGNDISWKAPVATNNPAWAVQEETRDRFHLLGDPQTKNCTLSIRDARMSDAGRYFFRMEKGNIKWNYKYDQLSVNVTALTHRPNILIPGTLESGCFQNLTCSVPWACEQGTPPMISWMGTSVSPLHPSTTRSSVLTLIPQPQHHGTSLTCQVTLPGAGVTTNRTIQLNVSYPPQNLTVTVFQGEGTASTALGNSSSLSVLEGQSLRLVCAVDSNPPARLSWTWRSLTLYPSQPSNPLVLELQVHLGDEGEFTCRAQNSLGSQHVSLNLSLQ
How it was run: as §2

[2] = biological target: T7, SIGLEC-8 transiently expressed on cells (UniProt Q9NYZ4 17-499, limits assumed); assay: cell binding titration, transient SIGLEC-8 line
T7 construct: whole, on cells; Two cassettes are described (P2A mVenus and direct mVenus fusion); also called the transient line; pTT5-SIGLEC-8 P2A mVenus
T7 sequence (Q9NYZ4 17-499 limits assumed): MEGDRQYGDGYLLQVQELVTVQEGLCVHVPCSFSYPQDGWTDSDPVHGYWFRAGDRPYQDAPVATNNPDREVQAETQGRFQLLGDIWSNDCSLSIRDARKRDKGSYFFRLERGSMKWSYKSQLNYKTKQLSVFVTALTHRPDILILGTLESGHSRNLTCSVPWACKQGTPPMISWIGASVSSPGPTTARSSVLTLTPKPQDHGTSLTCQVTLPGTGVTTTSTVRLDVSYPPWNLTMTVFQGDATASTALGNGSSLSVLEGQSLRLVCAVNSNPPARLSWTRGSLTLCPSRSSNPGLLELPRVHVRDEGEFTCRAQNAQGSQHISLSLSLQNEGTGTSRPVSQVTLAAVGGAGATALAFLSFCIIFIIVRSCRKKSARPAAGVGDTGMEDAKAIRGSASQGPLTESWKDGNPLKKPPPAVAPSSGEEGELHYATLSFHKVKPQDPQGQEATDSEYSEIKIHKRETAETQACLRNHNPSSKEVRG

[3] = biological target: T2, Sialic acid-binding immunoglobulin-like …; assay: Carterra SPR kinetics, summary table
How it was run: as §1

| Binder | Kd [1] [nM] | binding result (SIGLEC-2) | binding result (SIGLEC-3) | Kd (SIGLEC-5) [nM] | Kd (SIGLEC-6) [nM] | binding result (SIGLEC-7) | Kd (SIGLEC-2) [nM] | binding result (SIGLEC-5) | binding result (SIGLEC-6) | EC50 [2] [nM] | koff [3] [s⁻¹] | kon [3] [M⁻¹ s⁻¹] | Kd (SIGLEC-3) [nM] | Kd (SIGLEC-7) [nM] |
| --- | --- | --- | --- | --- | --- | --- | --- | --- | --- | --- | --- | --- | --- | --- |
| B1 | 4.86 | no binding | no binding | 14.5 | 1070 | no binding | – | – | – | – | – | – | – | – |
| B2 | 336 | – | no binding | – | – | no binding | 629 | no binding | no binding | 12.3 | – | – | – | – |
| B3 | 990 | no binding | no binding | 28.3 | 9.6 | no binding | – | – | – | 1.73 | – | – | – | – |
| B4 | 0.217 | no binding | no binding | 29.7 | – | no binding | – | – | no binding | 2.19 | 7.23e-05 | 334000 | – | – |
| B5 | 0.517 | no binding | no binding | 6.7 | 35.2 | no binding | – | – | – | 1.07 | 0.000138 | 267000 | – | – |
| B6 | 8.89 | – | no binding | – | – | no binding | 836 | no binding | no binding | 1.25 | – | – | – | – |
| B7 | 9.23 | – | – | 5.5 | 6.9 | no binding | 208 | – | – | 1.95 | – | – | 62.2 | – |
| B8 | 1.12 | no binding | no binding | 123 | – | no binding | – | – | no binding | 0.813 | – | – | – | – |
| B9 | 0.271 | – | – | 3.4 | – | – | 43.2 | – | – | 1.02 | 0.000156 | 576000 | 60.5 | 18 |
| B10 | 19.2 | – | – | 4.2 | 5.3 | – | 128 | – | – | 3.81 | – | – | – | 17.4 |
| B11 | 0.822 | – | no binding | 33.7 | – | no binding | – | – | no binding | 1.05 | 0.000194 | 236000 | – | – |
| B12 | 3.17 | – | no binding | – | – | no binding | 755 | no binding | no binding | 1.09 | – | – | – | – |
| B13 | 1.06 | no binding | no binding | 19.9 | 12 | no binding | – | – | – | 0.527 | – | – | – | – |

From patent US20260001953A1 (TWIST BIOSCIENCE, published 2026)
